We go through 1 molecule from patent US20020115606A1 (MYRIAD GENETICS, published 2002).

Assay [1] concerns the target T1, neuroendocrine protein Discs Large 3 (NE-dlg, DLG3) amino acids 94-506 (yeast; human, UniProt P04386 768-881; Q92796 94-506).
T1 construct: also called SAP102
T1 sequence (looked up): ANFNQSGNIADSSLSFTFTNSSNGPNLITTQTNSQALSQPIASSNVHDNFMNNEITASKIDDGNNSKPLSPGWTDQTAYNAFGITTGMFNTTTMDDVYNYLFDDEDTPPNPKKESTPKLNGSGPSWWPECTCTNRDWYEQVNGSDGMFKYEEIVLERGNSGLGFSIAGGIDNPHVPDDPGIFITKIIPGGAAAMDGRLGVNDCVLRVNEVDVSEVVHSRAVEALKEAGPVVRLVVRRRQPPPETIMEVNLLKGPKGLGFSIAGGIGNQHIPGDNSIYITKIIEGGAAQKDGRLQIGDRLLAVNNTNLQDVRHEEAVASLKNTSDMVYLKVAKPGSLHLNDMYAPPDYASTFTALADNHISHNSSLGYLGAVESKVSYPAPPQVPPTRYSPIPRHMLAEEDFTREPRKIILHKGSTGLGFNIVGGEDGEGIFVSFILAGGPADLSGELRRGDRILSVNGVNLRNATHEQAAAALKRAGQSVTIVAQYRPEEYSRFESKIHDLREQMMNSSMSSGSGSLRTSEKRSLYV
Put plainly: yeast two-hybrid. From the text: (§1) The principles and methods of the yeast two-hybrid systems have been described in detail (Bartel and Fields, 1997). The following is thus a description of the particular procedure that was used, which was applied to all proteins.
(§2) The cDNA encoding the bait protein was generated by PCR from brain cDNA. Gene-specific primers were synthesized with appropriate tails added at their 5′ ends to allow recombination into the vector pGBTQ. The tail for the forward primer was 5′-[…]-3′ (SEQ ID NO: 1) and the tail for the reverse primer was 5′-[…]-3′ (SEQ ID NO:2). […] The new construct was selected directly in the yeast J693 for its ability to drive tryptophane synthesis (genotype of this strain: Mat α, ade2, his3, leu2, trp1, URA3::GAL1-lacZ LYS2::GAL1-HIS3 gal4del gal80del cyhR2). In these yeast cells, the bait is produced as a C-terminal fusion protein with the DNA binding domain of the transcription factor Gal4 (amino acids 1 to 147). A total human brain (person) cDNA library cloned into the yeast expression vector pACT2 was purchased from Clontech (human brain […] cDNA, cat. # HL4004AH), transformed into the yeast strain J692 (genotype of this strain: Mat α, ade2, his3, leu2, trp1, URA3::GAL1-lacZ LYS2::GAL1-HIS3 gal4del gal80del cyhR2), and selected for the ability to drive leucine synthesis. In these yeast cells, each cDNA is expressed as a fusion protein with the transcription activation domain of the transcription factor Gal4 (amino acids 768 to 881) and a 9 amino acid hemagglutinin epitope tag. J693 cells […] expressing the bait were then mated with J692 cells […] expressing proteins from the brain library. The resulting diploid yeast cells expressing proteins interacting with the bait protein were selected for the ability to synthesize tryptophane, leucine, histidine, and β-galactosidase.

Assay [2] deals with T2, transcription factor HTF4A amino acids 296-494 (yeast; human, UniProt P04386 768-881; Q99081 296-494).
T2 sequence (looked up): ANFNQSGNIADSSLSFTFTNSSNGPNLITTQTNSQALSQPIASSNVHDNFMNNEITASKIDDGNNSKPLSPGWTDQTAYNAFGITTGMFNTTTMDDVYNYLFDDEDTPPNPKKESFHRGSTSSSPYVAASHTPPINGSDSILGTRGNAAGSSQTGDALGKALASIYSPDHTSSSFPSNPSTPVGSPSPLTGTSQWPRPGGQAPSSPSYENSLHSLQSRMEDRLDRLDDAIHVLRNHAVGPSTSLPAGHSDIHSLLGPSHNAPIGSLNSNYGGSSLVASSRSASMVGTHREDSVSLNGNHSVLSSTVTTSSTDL
The experiment in a line: yeast two-hybrid.
From the text: as §1, §2

B1: bcr (break point cluster) amino acids 1206-1271, C-terminal bait (other, UniProt P04386 1-147, looked up)
chain: MKLLSSIEQACDICRLKKLKCSKEKPKCAKCLKNNWECRYSPKTKRSPLTRAHLTEVESRLERLEQLFLLIFPREDLDMILKMDSLQDIKALLTGLFVQDNVNKDAVTDRLASVETDMPLTLRQHRISATSSSEESSNKGQRQLTVSVFGPTLLRPSEKESKLPANPSQPITMTDSWSLEVMSQVQVLLYFLQLEAIPAPDSKRQSILFSTEV
For B1, the binding result in assay [1] and in assay [2] was “binds” throughout.
